Measured values: US20230074277A1 (BUEHLMANN LABORATORIES, published 2023)

Molecular target: the molecule itself
Test: size exclusion chromatography, buffer A + 2 mM CaCl2
Excerpt: FIG. 9: Site-directed mutagenesis of the SEQ-ID NO:3 fusion protein and its consequences. A previously described mutation (EP3248015 A1) that impairs heterotetramerization of S100A8/S100A9, namely E78A in the S100A9 polypeptide chain, was introduced into the fusion protein. This E78A mutant remains monomeric, even in the presence of CaCl₂.
Site directed mutagenesis was used to introduce the mutation E78A in the S100A9 chain (see EP3248015 A1) of the fusion protein (SEQ ID NO:3). In endogenous calprotectin, this mutation abrogates […] (Leukert N et al. Calcium-dependent tetramer formation of S100A8 and S100A9 is essential for biological activity (2006). J. Mol. Biol. 359: 961-972). Similary, introduction of this mutation into the fusion protein (SEQ-ID NO:3) prevented CaCl₂) dependent dimerization. The S200 size exclusion chromatography of the mutated and non-mutated fusion proteins (SEQ ID NO:3) in buffer A containing 2 mM CaCl₂) was performed as described in Examples 1 and 3 (FIG. 9).

B1: recombinant fusion polypeptide (SEQ ID NO:3) (other)
chain: MHHHHHHLEVLFQGPMTCKMSQLERNIETIINTFHQYSVKLGHPDTLNQGEFKELVRKDLQNFLKKENKNEKVIEHIMEDLDTNADKQLSFEEFIMLMARLTWASHEKMHEGDEGPGHHHKPGLGEGTPLEVLFQGPMLTELEKALNSIIDVYHKYSLIKGNFHAVYRDDLKKLLETECPQYIRKKGADVWFKELDINTDGAVNFQEFLILVIKMGVAAHKKSHEESHKE
notes: Single polypeptide, monomer 26.8 kDa, equal to an S100A8/S100A9 heterodimer; It dimerizes in 2 mM CaCl2, equal to the heterotetramer; also called rCAL (Mrp14-Mrp8 fusion)
binding result: binds
